Reference: patent publication US20040253243

Columns and labels:
PDGF-AB (Homo sapiens) = PDGF-AB (Homo sapiens) (UniProt P04085+P01127); conditions: [PEG40K]-NH2-dCdAdGdGdCfUdAfCmG-PEG-dCdGTdAmGdAmGdCdAfUfCmA-PEG-TdGdATfCfCfUmG-3T (f 2'-F, m 2'-OMe, d deoxy; PEG spacers)
PDGF-BB (Homo sapiens) = PDGF-BB (Homo sapiens) (UniProt P01127); conditions: [PEG40K]-NH2-dCdAdGdGdCfUdAfCmG-PEG-dCdGTdAmGdAmGdCdAfUfCmA-PEG-TdGdATfCfCfUmG-3T (f 2'-F, m 2'-OMe, d deoxy; PEG spacers)
Chain of PDGF-BB (Homo sapiens) (P01127 82-190): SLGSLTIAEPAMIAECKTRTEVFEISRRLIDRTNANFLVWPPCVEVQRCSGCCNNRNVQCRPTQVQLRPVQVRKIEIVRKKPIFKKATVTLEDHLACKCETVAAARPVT

Chain of PDGF-AB (Homo sapiens) (P01127 82-190, chain 2 of 2, other chains not shown): as the sequence (P01127 82-190) above

Sequence: CAGGCUACGCGTAGAGCAUCATGATCCUG [ARC127]
- Kd (PDGF-AB (Homo sapiens)): 100 pM
- Kd (PDGF-BB (Homo sapiens)): 100 pM
